Here are results for 1 molecule from US6140058, “Activation of p53 protein” (Newburn Ellis).

The target of series [1] is T1, p53 wild type (Homo sapiens, UniProt P04637 P04637:1-393). Kind of series: EMSA; casein kinase II-activated, 1 mM ATP. The following applies: tags: bacterial expression, Fraction III; chain copies: 4 inferred; label: 32P; Hind III compatible overhangs. How it is done: (§1) In the first stage, wild type p53 (60 ng) or mutant forms of p53 (180 ng) was incubated with ATP and the indicated activating protein at 30° C. for 30 minutes. In the second stage, the consensus site oligonucleotide was added to the reactions to assay for sequence-specific DNA binding. (A) PAb421; lane 1, 3 and 5 (p53, p53 His 273, and p53 Lys285, respectively), lanes 2, 4 and 6 (PAb421 and p53, p53 His273, and p53 Lys285, respectively). (B) DnaK; lanes 1, 5, and 9 (p53, p53 His273, and p53 Lys285, respectively), lanes 2, 6 and 10 (DO-1 and p53, p53 His273, and p53 Lys285, respectively), lanes 3, 7 and 11 (DnaK and p53, p53 His273, and p53 Lys285, respectively), lanes 4, 8 and 12 (DnaK and p53, p53 His273, and p53 Lys285, respectively, followed by DO-1). […] PAb421-activated p53 (solid bar), DnaK-activated p53 (open bar), casein kinase II-activated p53 (stippled bar).

The target in series [2] is T1, p53 wild type. Kind of series: EMSA; DnaK-activated, 1 mM ATP. To be noted: tags: bacterial expression, Fraction III; chain copies: 4 inferred; label: 32P; Hind III compatible overhangs. The procedure: as §1

T1 sequence (P04637 whole entry, one chain of several): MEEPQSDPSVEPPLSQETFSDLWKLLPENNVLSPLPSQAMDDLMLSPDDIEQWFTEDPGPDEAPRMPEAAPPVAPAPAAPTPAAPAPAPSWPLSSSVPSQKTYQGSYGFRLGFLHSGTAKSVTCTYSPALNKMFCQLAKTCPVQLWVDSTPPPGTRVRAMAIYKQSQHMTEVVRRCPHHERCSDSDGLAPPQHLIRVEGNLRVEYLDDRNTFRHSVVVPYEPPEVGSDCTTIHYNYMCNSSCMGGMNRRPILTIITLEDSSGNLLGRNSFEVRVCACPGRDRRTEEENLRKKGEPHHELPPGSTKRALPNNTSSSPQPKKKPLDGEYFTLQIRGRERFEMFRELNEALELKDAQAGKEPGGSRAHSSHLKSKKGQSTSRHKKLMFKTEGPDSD

B1: PG p53 consensus site (dsDNA)
DNA 1: AGCTTAGACATGCCTAGACATGCCTA
DNA 2: AGCTTAGGCATGTCTAGGCATGTCTA
Consider B1, for which the results for the activity in series [1] and in series [2] were 64 fmol DNA bound/ug protein and 57 fmol DNA bound/ug protein, respectively.
